Source: patent US20120231006A1 (Amgen, published 2012)
Blank lines part the entries; values can stand above or below the binder they belong to.

Tests used:
[1] = biological target: T1, mOrai1-hOrai1 ECL2 (AESVIV) protein (human/mouse chimera, UniProt Q8BWG9 1-304 (mouse entry)); assay: FACS, 293EBNA transfectants [D00028 FIG. 16B]
T1 construct: also called Ch
Excerpt: (§1) FIG. 16A-D illustrates the results of FACS analysis showing binding to the indicated mOrai1-hOrai1 ECL2 chimeric mutants expressed on the surface of HEK-293-EBNA cells. Transfected cells were stained first with recombinant monoclonal antibodies then counter-stained with a secondary phycoerythrin-labeled goat (“Gt”) anti-human (“Hu”) IgG F(ab′)₂ antibody fragment and visualized using FACS. In FIG. 16B and FIG. 16D, The values of Relative Fluorescence Intensity as Percent of Control (RFI-POC) are calculated from the relative fluorescence intensity geometric mean (Geo Mean). The geometric mean is an average calculated by multiplying a series of numbers and taking the nth root where n is the number of numbers in the series. It is a statistical average of a set of transformed numbers often used to represent a central tendency in a highly variable data set that minimizes the effects of extreme values.
(§2) Table 11A and Table 11B feature a schematic representation of the POC data from FIG. 16B and FIG. 16D, respectively, where the binding results are recorded as (+++) denoting binding POC from 40% to 100%, (++) for POC of 5% to less than 40%, (+) for POC from 1% to less than 5% and (−) as lack of binding with POC less than 1%.

[2] = biological target: T2, mOrai1-hOrai1 ECL2 (…) protein (human/mouse chimera, UniProt Q8BWG9 1-304 (mouse entry)); assay: FACS, 293EBNA transfectants [D00028 FIG. 16B]
T2 construct: also called Ch
T2 sequence (Q8BWG9 other isoform, or with tags, fused parts or gaps): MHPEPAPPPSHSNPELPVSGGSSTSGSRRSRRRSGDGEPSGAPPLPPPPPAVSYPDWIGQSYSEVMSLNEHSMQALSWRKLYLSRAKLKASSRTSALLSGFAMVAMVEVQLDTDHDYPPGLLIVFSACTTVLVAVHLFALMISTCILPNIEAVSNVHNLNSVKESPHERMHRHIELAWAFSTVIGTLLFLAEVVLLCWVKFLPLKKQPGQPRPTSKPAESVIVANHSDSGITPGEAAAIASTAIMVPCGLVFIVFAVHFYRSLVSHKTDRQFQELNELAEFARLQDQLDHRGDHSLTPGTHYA
Excerpt: as §1, §2

[3] = biological target: T3, hOrai1-mOrai1 ECL2 (AANVST) protein (human/mouse chimera, UniProt Q96D31 1-301); assay: FACS, 293EBNA; design: concentration or dose not given beside the values
T3 construct: also called Ch
T3 sequence (Q96D31 other isoform, or with tags, fused parts or gaps): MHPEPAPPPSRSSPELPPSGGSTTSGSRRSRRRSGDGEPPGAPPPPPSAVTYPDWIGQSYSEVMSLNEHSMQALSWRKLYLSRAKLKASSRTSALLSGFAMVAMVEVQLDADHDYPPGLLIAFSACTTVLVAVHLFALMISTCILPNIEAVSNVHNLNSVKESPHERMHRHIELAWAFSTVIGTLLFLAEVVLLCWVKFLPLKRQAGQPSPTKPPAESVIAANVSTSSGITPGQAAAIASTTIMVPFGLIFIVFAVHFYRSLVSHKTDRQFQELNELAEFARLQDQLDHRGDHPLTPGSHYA
Procedure: (§3) FACS binding analysis. Transfected 293EBNA cells transiently expressed hOrai1-mOrai1 ECL2 or mOrai1-hOrai1 ECL2 chimera. The transfected cells were harvested at 48 hours post-transfection. Cells transfected with pcDNA3.1 were used as negative controls. Cells were washed once with ice-cold 1×PBS, resuspended in ice-cold FACS buffer (1×D-PBS+2% goat serum), and 2×10⁵ cells in 100 μL were stained per antibody combination. All antibody incubation steps were performed on ice for 1 hour. […] Next, the unlabelled antibody was detected using goat F(ab′)₂ anti-mouse or anti-human IgG-phycoerythrin (IgG-PE), followed by a wash with 200 μL of ice-cold FACS buffer before flow cytometry analysis. Unstained cells and cells stained with detecting antibodies were used as negative controls. The values of relative level of fluorescence were calculated using FCS Express (De Novo Software) and mean values were calculated using log-transformed data (geometric mean). The results of the FACS analysis are shown in FIG. 15A-B, which supports the conclusion that the hOrai1 ECL2 domain is the region of hOrai1 where antibodies of the present invention bind.
(§4) Representative results of FACS analysis of binding to the mutant hOrai1-mOrai1 ECL2 chimera described above by exemplary anti-hOrai1 antibodies of the present invention are shown in FIG. 17A-D, Table 10A and Table 10B below. Table 10A (Campaign 1) and Table 10B (Campaign 2) show the gain in binding ability of exemplary monoclonal antibodies to hOrai 1-mOrai 1 ECL2 chimera mutants as determined by FACS.

[4] = biological target: T4, hOrai1-mOrai1 ECL2 (PASGAA) protein (human/mouse chimera, UniProt Q96D31 1-301); assay: FACS, 293EBNA; design: concentration or dose not given beside the values
T4 construct: also called Ch
T4 sequence (Q96D31 other isoform, or with tags, fused parts or gaps): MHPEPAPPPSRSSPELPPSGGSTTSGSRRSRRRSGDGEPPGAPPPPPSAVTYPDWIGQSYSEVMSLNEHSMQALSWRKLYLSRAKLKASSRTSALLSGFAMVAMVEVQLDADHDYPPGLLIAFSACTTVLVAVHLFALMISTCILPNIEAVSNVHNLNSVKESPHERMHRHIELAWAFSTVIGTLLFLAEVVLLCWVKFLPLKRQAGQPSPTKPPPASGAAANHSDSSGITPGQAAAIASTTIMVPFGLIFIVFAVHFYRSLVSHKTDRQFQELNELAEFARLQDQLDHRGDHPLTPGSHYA
Procedure: as §3, §4

[5] = biological target: T5, hOrai1-mOrai1 ECL2 (GAA) protein (human/mouse chimera, UniProt Q96D31 1-301); assay: FACS, 293EBNA; design: concentration or dose not given beside the values
T5 construct: also called Ch
T5 sequence (Q96D31 other isoform, or with tags, fused parts or gaps): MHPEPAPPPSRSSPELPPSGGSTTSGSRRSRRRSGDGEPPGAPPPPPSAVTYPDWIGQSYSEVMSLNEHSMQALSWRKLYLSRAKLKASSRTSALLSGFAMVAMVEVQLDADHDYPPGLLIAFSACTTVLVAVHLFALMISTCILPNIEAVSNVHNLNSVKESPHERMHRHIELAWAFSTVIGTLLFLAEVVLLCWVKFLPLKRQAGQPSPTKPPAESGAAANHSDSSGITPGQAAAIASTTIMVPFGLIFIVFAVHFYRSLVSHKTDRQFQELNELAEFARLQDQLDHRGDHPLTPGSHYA
Procedure: as §3, §4

[6] = biological target: T6, hOrai1-mOrai1 ECL2 (…) protein (human/mouse chimera, UniProt Q96D31 1-301); assay: FACS, 293EBNA; design: concentration or dose not given beside the values
T6 construct: also called Ch
Procedure: as §3, §4
T6 sequence (Q96D31 other isoform, or with tags, fused parts or gaps): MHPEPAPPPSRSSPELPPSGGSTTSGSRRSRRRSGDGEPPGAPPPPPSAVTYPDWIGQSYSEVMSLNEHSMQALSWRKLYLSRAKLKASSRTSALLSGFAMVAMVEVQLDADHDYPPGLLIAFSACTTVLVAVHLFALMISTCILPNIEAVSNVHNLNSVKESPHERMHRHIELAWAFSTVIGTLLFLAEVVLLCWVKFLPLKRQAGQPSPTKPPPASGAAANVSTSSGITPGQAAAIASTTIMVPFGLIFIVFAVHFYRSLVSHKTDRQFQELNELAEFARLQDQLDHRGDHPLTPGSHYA

[7] = biological target: T7, hOrai1-mOrai1 ECL2 chimeric protein (human/mouse chimera, UniProt Q96D31 1-301); assay: FACS, 293EBNA; design: concentration or dose not given beside the values
T7 construct: human Orai1 with mouse ECL2; also called Ch
T7 sequence (Q96D31 other isoform, or with tags, fused parts or gaps mutant): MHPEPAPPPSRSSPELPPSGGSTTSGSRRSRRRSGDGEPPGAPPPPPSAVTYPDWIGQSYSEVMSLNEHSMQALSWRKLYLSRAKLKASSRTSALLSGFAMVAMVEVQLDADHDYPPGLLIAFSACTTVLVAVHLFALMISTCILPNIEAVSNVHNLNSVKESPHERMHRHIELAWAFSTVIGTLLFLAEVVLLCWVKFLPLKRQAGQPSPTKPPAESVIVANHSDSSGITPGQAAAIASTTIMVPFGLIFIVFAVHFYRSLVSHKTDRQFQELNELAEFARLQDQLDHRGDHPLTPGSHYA
Procedure: as §3, §4

[8] = biological target: T8, hOrai1-mOrai1 ECL2 (VST) protein (human/mouse chimera, UniProt Q96D31 1-301); assay: FACS, 293EBNA; design: concentration or dose not given beside the values
T8 construct: also called Ch
T8 sequence (Q96D31 other isoform, or with tags, fused parts or gaps): as the sequence (Q96D31 other isoform, or with tags, fused parts or gaps mutant) above, with H224V, D226T counted along it
Procedure: as §3, §4

[9] = biological target: cynomolgus Orai1 (cynomolgus monkey, UniProt Q96D31 1-301 (human entry)); assay: cell-based or functional assay
Chain of cynomolgus Orai1 (Q96D31 other isoform, or with tags, fused parts or gaps): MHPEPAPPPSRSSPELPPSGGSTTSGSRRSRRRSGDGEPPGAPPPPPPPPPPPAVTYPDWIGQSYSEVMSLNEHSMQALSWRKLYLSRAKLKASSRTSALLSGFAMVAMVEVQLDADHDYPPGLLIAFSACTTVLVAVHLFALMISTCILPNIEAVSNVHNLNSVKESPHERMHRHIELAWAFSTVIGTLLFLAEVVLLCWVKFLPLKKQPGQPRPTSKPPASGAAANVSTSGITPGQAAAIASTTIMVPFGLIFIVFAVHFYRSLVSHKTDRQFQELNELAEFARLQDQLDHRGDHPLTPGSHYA

[10] = biological target: T9, hOrai1-mOrai1 ECL2 (…) protein (human/mouse chimera, UniProt Q96D31 1-301); assay: FACS, 293EBNA, RFI-POC grade; design: concentration or dose not given beside the values
T9 construct: also called Ch
T9 sequence (Q96D31 other isoform, or with tags, fused parts or gaps): as the sequence (Q96D31 other isoform, or with tags, fused parts or gaps mutant) above, with R204K, A206P, S210R, K213S, P214K, A216P, E217A counted along it

[11] = biological target: T10, hOrai1-mOrai1 ECL2 (RPTSKPPA) protein (human/mouse chimera, UniProt Q96D31 1-301); assay: FACS, 293EBNA, RFI-POC grade; design: concentration or dose not given beside the values
T10 construct: also called Ch
T10 sequence (Q96D31 other isoform, or with tags, fused parts or gaps): as the sequence (Q96D31 other isoform, or with tags, fused parts or gaps mutant) above, with S210R, K213S, P214K, A216P, E217A counted along it

[12] = biological target: T11, mOrai1-hOrai1 ECL2 chimeric protein (human/mouse chimera, UniProt Q8BWG9 1-304 (mouse entry)); assay: FACS, 293EBNA, RFI-POC grade; design: concentration or dose not given beside the values
T11 construct: mouse Orai1 with human ECL2; also called Ch
T11 sequence (Q8BWG9 other isoform, or with tags, fused parts or gaps mutant): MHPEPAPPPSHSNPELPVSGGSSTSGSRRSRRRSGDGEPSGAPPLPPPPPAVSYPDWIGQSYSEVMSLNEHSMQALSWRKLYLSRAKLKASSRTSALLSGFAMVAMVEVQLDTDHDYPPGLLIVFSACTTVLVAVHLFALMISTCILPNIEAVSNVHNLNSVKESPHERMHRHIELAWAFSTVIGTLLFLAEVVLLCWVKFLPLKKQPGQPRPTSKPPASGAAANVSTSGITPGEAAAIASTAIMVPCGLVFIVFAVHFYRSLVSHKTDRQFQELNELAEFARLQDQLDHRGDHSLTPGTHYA

[13] = biological target: T12, hOrai1-mOrai1 ECL2 (SKPPA) protein (human/mouse chimera, UniProt Q96D31 1-301); assay: FACS, 293EBNA, RFI-POC grade; design: concentration or dose not given beside the values
T12 construct: also called Ch
T12 sequence (Q96D31 other isoform, or with tags, fused parts or gaps): as the sequence (Q96D31 other isoform, or with tags, fused parts or gaps mutant) above, with K213S, P214K, A216P, E217A counted along it

[14] = biological target: T13, hOrai1-mOrai1 ECL2 (…) protein (human/mouse chimera, UniProt Q96D31 1-301); assay: FACS, 293EBNA, RFI-POC grade; design: concentration or dose not given beside the values; remark: listed apart in the source
T13 construct: also called Ch
T13 sequence (Q96D31 other isoform, or with tags, fused parts or gaps): as the sequence (Q96D31 other isoform, or with tags, fused parts or gaps mutant) above, with S210R, K213S, P214K, A216P, E217A, V219G, I220A, V221A counted along it

[15] = biological target: T14, hOrai1-mOrai1 ECL2 (…) protein (human/mouse chimera, UniProt Q96D31 1-301); assay: FACS, 293EBNA, RFI-POC grade; design: concentration or dose not given beside the values; remark: listed apart in the source
T14 construct: also called Ch
T14 sequence (Q96D31 other isoform, or with tags, fused parts or gaps): as the sequence (Q96D31 other isoform, or with tags, fused parts or gaps mutant) above, with R204K, A206P, S210R, K213S, P214K, A216P, E217A, V219G, I220A, V221A counted along it

[16] = biological target: human Orai1 (human, UniProt Q96D31 1-301); assay: cell-based or functional assay
Chain of human Orai1 (Q96D31 whole entry): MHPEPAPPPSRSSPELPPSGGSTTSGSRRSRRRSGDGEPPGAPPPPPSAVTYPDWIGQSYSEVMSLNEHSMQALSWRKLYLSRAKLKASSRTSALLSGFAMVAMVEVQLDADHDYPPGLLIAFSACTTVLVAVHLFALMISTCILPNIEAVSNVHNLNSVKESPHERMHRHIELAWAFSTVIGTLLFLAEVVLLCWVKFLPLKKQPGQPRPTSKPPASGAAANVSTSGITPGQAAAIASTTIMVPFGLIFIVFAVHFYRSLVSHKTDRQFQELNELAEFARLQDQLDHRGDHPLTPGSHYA

[17] = biological target: T10, hOrai1-mOrai1 ECL2 (RPTSKPPA) protein; assay: FACS, 293EBNA transfectants [D00032 FIG. 17B]
Procedure: as §3, with “The results of the FACS analysis are shown in FIG. 15A-B, which supports the conclusion that the hOrai1 ECL2 domain is the region of hOrai1 where antibodies of the present invention bind.” left out
as §4

T1 sequence (Q8BWG9 other isoform, or with tags, fused parts or gaps): as the sequence (Q8BWG9 other isoform, or with tags, fused parts or gaps mutant) above, with P218A, A219E, G221V, A222I, A223V counted along it

binding result [1]: binds
binding result [2]: binds
percent of control (POC) of FACS Geo Mean [3]: < 1%
percent of control (POC) of FACS Geo Mean [4]: < 1%
percent of control (POC) of FACS Geo Mean [5]: < 1%
percent of control (POC) of FACS Geo Mean [6]: < 1%
percent of control (POC) of FACS Geo Mean [7]: < 1%
percent of control (POC) of FACS Geo Mean [8]: < 1%
IC50 IL-4 release, cynomolgus whole blood, Cyno # 1 [9]: 0.921 nM
IC50 IL-4 release, cynomolgus whole blood, Cyno # 2 [9]: 6.34 nM
IC50 IL-4 release, cynomolgus whole blood, Cyno # 3 [9]: 0.429 nM
IC50 IL-5 release, cynomolgus whole blood, Cyno # 1 [9]: 1.56 nM
IC50 IL-5 release, cynomolgus whole blood, Cyno # 2 [9]: 15.2 nM
IC50 IL-5 release, cynomolgus whole blood, Cyno # 3 [9]: 0.815 nM
IC50 IL-17 release, cynomolgus whole blood, Cyno # 1 [9]: 0.939 nM
IC50 IL-17 release, cynomolgus whole blood, Cyno # 2 [9]: 0.95 nM
IC50 IL-17 release, cynomolgus whole blood, Cyno # 3 [9]: 0.32 nM
percent of control (POC) of FACS Geo Mean [10]: 40 to 100%
percent of control (POC) of FACS Geo Mean [11]: 40 to 100%
percent of control (POC) of FACS Geo Mean [12]: 40 to 100%
percent of control (POC) of FACS Geo Mean [13]: 5 to 40%
percent of control (POC) of FACS Geo Mean [14]: 40 to 100%
percent of control (POC) of FACS Geo Mean [15]: 40 to 100%
IC50, NFAT-mediated luciferase assay (FIG. 6B) [16]: 4.4 nM
IC50, NFAT-mediated luciferase assay (FIG. 6C) [16]: 1.8 nM
IC50 of ICRAC current block, whole-cell patch clamp, HEK-293/hOrai1/hSTIM1 BB6.3 [16]: 55.9 nM
B1: mAb 2C1.1 (antibody, human IgG2, lambda, V domains shown)
VH: QVQLQQWGAGLLKPSETLSLTCAVYGGSFSGYYWSWIRQPPGKGLEWIGEIDHSGSTNYNPALKSRLTISVDTSKNQFSLKLSSVTAADTAVYYCARAGSGGYEDWFDPWGQGTLVTVSS
VL: QSVLTQPPSVSGAPGQRVTISCTGSSSNIGAGYNVHWYQQFPRTDPKLLIYVYNIRPSGVPDRFSGSRSGTSASLAITGLQTEDEADYYCQSYDSSLSGVVFGGGTKLTVLG
notes: fully human IgG2 lambda, Campaign 1; tested hybridoma-purified and recombinant; also called anti-hOrai1 mAb 2C1.1

percent of control (POC) of FACS Geo Mean [3]: < 1%
percent of control (POC) of FACS Geo Mean [4]: < 1%
percent of control (POC) of FACS Geo Mean [5]: < 1%
percent of control (POC) of FACS Geo Mean [6]: < 1%
percent of control (POC) of FACS Geo Mean [7]: < 1%
percent of control (POC) of FACS Geo Mean [8]: < 1%
binding result [17]: binds
percent of control (POC) of FACS Geo Mean [13]: 1 to 5%
IC50, NFAT-mediated luciferase assay (FIG. 6C) [16]: 1800 nM
B2: mAb 2B4.1 (antibody, human IgG2, lambda, V domains shown)
VH: QVQLVQSGAEVKKPGASVKVSCKASGYTFTDYYMHWVRQAPGQGLEWMGWINPNSGGTNYVQKFQDRVTMTRDTSITTAYMELTRLRSDDTAVYYCAREEGDYGMDVWGQGTTVTVSS
VL: QSVLTQPPSVSGAPGQRVTISCTGSNSNIGTGYDVHWYQKLPGTAPRLLIYSHFNRPSGVPDRFSGSTSGTSASLAITGLQAEDEADYYCQSYDSSLSGSVFGGGTKLTVLG
